Legend:
[1] = Retention of luminescence activity at pH 4.5 and 48° C.; type: physicochemical; details: for thermostability relative to Luc90-1B5: pH 4.5 and 48° C.; for half-life: pH 4.5 and 48° C. (FIG. 54B)
Method: Three populations of random mutants were produced using clone Luc90-1B5 as a template. These three populations were screened on the robot as experiments 114, 115, and 117. […] These screening conditions were biased to select clones that have increased retention of luminescence activity over time at pH 4.5 at 48° C. and increased luminescence activity when assayed at pH 7.1 with 10 μM ATP. Seventeen clones from experiment 114, seven clones from experiment 115, and ten clones from experiment 116 were shuffled together using sPCR and selected mutants from this screen were run on the robot as experiment 117. Eighteen clones were selected from experiment 117.

[2] = Assay to detect resistance to luciferase inhibitor (luciferin breakdown products); type: biochemical; details: luciferin degradation products (FIG. 61)
Method: A 10 mM stock solution of luciferin is incubated at 50° C. in 50 mM HEPES, pH 7.8, to accelerate the production of luciferin breakdown products. At different time points an aliquot is removed and then placed at −20° C. After incubation is complete, assay reagent (100 μM Luciferin, 1 μM ATP, 50 mM HEPES, pH 7.8 and 8 mM MgSO4) is prepared with luciferin from each of the different time points and a diluted lysate is then assayed with each assay reagent.
The lysate is prepared as follows. Overnight cultures of clones to be tested are prepared in LB supplemented with 100 μg/ml AMP. The cultures are diluted 1:10 in M-9 minimal media supplemented with 1 mM IPTG, 100 μg/ml AMP and grown for 3 hours at 30° C. Forty-five μl of cells is mixed with 20 μl of Buffer A and frozen. The mixture is thawed, 175 μl of Buffer B added, and the resulting mixture diluted 1:10 in Buffer C. A regression of luminescence versus time of luciferin incubation is then calculated, and from this graph half-life is extrapolated. A longer half-life means that the mutant being tested is more resistant to luciferin breakdown products.

[3] = Robotic thermostability screen of LucPpl mutants: decrease of activity over 10 hours at screening temperature; type: physicochemical
Method: “Enzyme stability” was determined by the rate of activity loss from cell lysates over 10 hours. In successive rounds of evolution the incubation temperature of the lysates was increased.
To prepare luciferases having certain performance, a method for in vitro evolution of enzyme function, as described above, was employed. Briefly described, the method is a recursive process of generating random mutations and screening for desirable properties. It was originally developed primarily to increase the thermostability of luciferases, although other enzymological characteristics are also subject to optimization by the screening criteria. A slightly different strategy was used to achieve the properties described above since two related luciferases needed to be optimized concomitantly.
The luciferases from P. plagiophthalamus have 13 cysteines, which are potentially sensitive to oxidation. This is in contrast to the commonly used firefly luciferase, which has only 4 cysteines. To remove any cysteines that may limit enzyme stability, oligonucleotide-directed mutagenesis was used to randomize the cysteine codons. Three sets of oligonucleotides were used: non-conserved cysteines in regions of low sequence homology (positions 69, 114, 160, 194, 335, and 460), non-conserved cysteines in regions of higher sequence homology (positions 127, 213, 310, and 311), and highly conserved cysteines (positions 60, 80, and 388). […]
The random mutagenesis process was repeated using the best clone from the previous cycle of mutagenesis (Luc53-0G01). […] The discrepancy in measured activity of Luc53-0G01 in this cycle of mutagenesis compared to the previous cycle may be due to changes in the assay procedure and recalibration of the incubator temperature. It should be noted that the recorded thermostabilities from each stage of mutagenesis are calculated from robotic data using abbreviated assay procedures. The data are intended to indicate the relative stabilities of enzyme mutants when assayed in the same screen, rather than providing an accurate quantitation of thermostability.

[4] = Thermostability (half-life, retained activity) of luciferases incubated in aqueous solution at different temperatures; type: physicochemical; details: purified enzyme
Source text: As defined herein, a “thermostable” enzyme, e.g., a luciferase, or an enzyme which has “thermostability”, is an enzyme which under certain conditions, e.g., at certain temperature, in aqueous solution and/or for certain periods of time, has an increased retention of activity relative to a reference enzyme. For example, for a thermostable luciferase, a reference luciferase may be native wild-type luciferase or recombinant wild-type luciferase. Preferably, for beetle luciferases, the activity is luminescence under conditions of saturation with luciferin and ATP. One measure of thermostability of an enzyme is the half-life of the enzyme in an aqueous solution (the time over which 50% of the activity is lost) at a stated temperature.
(§1) Protein purification: Four mutants that are described herein (Luc[T249M], Luc49-7C6, Luc78-0B10, and Luc90-1B5) were purified using a previously published procedure (Hastings et al., 1996).
[…] Enzyme stability was determined from diluted proteins incubated at different temperatures, and aliquots were removed at different time points. A linear regression of the natural log of the luminescence and time was calculated. Half-life was calculated as the 1n(0.5)/slope of the regression.

[5] = Michaelis-Menten constant for luciferin of purified mutants; type: biochemical; details: purified enzyme
Source text: (§2) Substrate binding was screened by measuring an apparent composite Km (see Example 2) for luciferin and ATP. […] The Km for luciferin rose while the Km for ATP declined (Table 3). The reason for this change is unknown, although it can be speculated that more efficient release of oxyluciferin or luciferin inhibitors could lead to more rapid enzyme turnover.
as §1

[6] = Michaelis-Menten constant for ATP of purified mutants; type: biochemical; details: purified enzyme
Source text: as §2, §1

[7] = tested on: colonies of E. coli; experiment: In vivo luminescence of recombinant colonies of E. coli (visual screen); type: cell-based
Source text: Five to seven nitrocellulose disks having 200-500 colonies per disk (1000-3500 colonies total) are screened per 2 microplates (176 clones) (Wood and DeLuca, 1987). The clones are screened at high temperatures using standard screening conditions.
Screening method: In the qualitative visual screen, colonies were selected only for their ability to sustain relatively bright luminescence. The thermal stability of the luciferase within the colonies of E. coli was progressively challenged in successive rounds of evolution by increasing the temperature of the screen. The selected colonies were inoculated into wells of 96-well plates each containing 200 μl of growth medium.
JM109 clones (from a transformation reaction) are plated onto nitrocellulose filters placed on LB amp plates at a screening density of about 500 colonies per plate.
The nitrocellulose filter is lifted on one side and 500 μl of 10 mM IPTG is added to each of the plates. The filter is then placed back onto the plate to allow diffusion of the IPTG into the colonies containing the different mutant luciferase genes. The plates are then incubated for about 4 hours at room temperature.
One (1) ml of a solution contains 1 mM luciferin and 100 mM sodium citrate is pipetted onto a slide warmer that is set at 50° C. […]

B1: Luc133-1B2: mutant luciferase, SEQ ID NO:44 (protein)
chain: MADKNILYGPEPFYPLEDGTAGEQMFDALSRYADIPGCIALTNAHTKENVLYEEFLKLSCRLAESFKKYGLKQNDTIAVCSENSLQFFLPVIASLYLGIIVAPVNDKYIERELIHSLGIVKPRIVFCSKNTFQKVLNVKSKLKSIETIIILDLNDDLGGYQCLNNFISQNSDSNLDVKKFKPYSFNRDDQVALIMFSSGTTGLPKGVMLTHKNIVARFSIAKDPTFGNAINPTSAILTVIPFHHGFGMMTTLGYFTCGFRVVLMHTFEEKLFLQSLQDYKVESTLLVPTLMAFLAKSALVEKYDLSHLKEIASGGAPLSKEIGEMVKKRFKLNFVRQGYGLTETTSAVLITPKGDAKPGSTGKIVPFHAVKVVDPTTGKILGPNEPGELYFKGPMIMKGYYNNEEATKAIIDNDGWLRSGDIAYYDNDGHFYIVDRLKSLIKYKGYQVAPAEIEGILLQHPYIVDAGVTGIPDEAAGELPAAGVVVQTGKYLNEQIVQDYVASQVSTAKWLRGGVIFLDEIPKGSTGKIDRKVLRQMLEKHTNG
modifications: Mutant luciferase
[1]
  thermostability relative to Luc90-1B5: increased thermostability
  half-life: about 20 minutes
[2]
  resistance to inhibitor relative to Luc90-1B5: increased resistance to inhibitor

B2: Luc146-1H2: mutant luciferase, SEQ ID NO:45 (protein)
chain: MADKNILYGPEPFYPLEDGTAGEQMFDALSRYAAIPGCIALTNAHTKENVLYEEFLKLSCRLAESFKKYGLKQNDTIAVCSENSLQFFLPVIASLYLGIIVAPVNDKYIERELIHSLGIVKPRIVFCSKNTFQKVLNVKSKLKSIETIIILDLNEDLGGYQCLNNFISQNSDSNLDVKKFKPYSFNRDDQVASIMFSSGTTGLPKGVMLTHKNIVARFSIAKDPTFGNAINPTSAILTVIPFHHGFGMMTTLGYFTCGFRVVLMHTFEEKLFLQSLQDYKVESTLLVPTLMAFLAKSALVEKYDLSHLKEIASGGAPLSKEIGEMVKKRFKLNFVRQGYGLTETTSAVLITPKGDAKPGSTGKIVPLHAVKVVDPTTGKILGPNEPGELYFKGPMIMKGYYNNEEATKAIIDNDGWLRSGDIAYYDNDGHFYIVDRLKSLIKYKGYQVAPAEIEGILLQHPYIVDAGVTGIPDEAAGELPAAGVVVQTGKYLNEQIVQDYVASQVSTAKWLRGGVKFLDEIPKGSTGKIDRKVLRQMLEKHTNG
modifications: Mutant luciferase
[1]
  thermostability relative to Luc90-1B5: increased thermostability
  half-life: about 62 minutes
[2]
  resistance to inhibitor relative to Luc90-1B5: increased resistance to inhibitor

B3: Luc30-4B02: LucPplYG mutant, first cycle of random mutagenesis (protein)
chain: MMKREKNVIYGPEPLHPLEDLTAGEMLFRALRKHSHLPQALVDVVGDESLSYKEFFEATVLLAQSLHNCGYKMNDVVSICAENNTRFFIPVIAAWYIGMIVAPVNESYIPDELCKVMGISKPQIVFTTKNILNKVLEVQSRTNFIKRIIVLDTVENIHGCESLPNFISRYSDGNIANFKPLHFDPVEQVAAILCSSGTTGLPKGVMQTHQNICVRLIHALDPRAGTQLIPGVTVLVYLPFFHAFGFSITLGYFMVGLRVIMSRRFDPEAFLKAIQDYEVRSVINVPSVILFLSKSPLVDKYDLSSLRELCCGAAPLAKEVAEVAAKRLNLPGIRCGFGLTESTSANIHSLRDEFKPGSLGRVTPLMAAKIADRETGKALGPNQVGELCIKGPMVSKGYVNNVEATKEAIDDDGWLHSGDFGYYDEDEHFYVVDRYKELIKYKGSQVAPAELEEILLKNPCIRDVAVVGIPDLEAGELPSAFVVKQPGKEITAKEVYDYLAERVSHTKYLRGGVRFVDSIPRNVTGKITRKELLKQLLEKAGG
modifications: Mutant luciferase
notes: LucPplYG mutant, first cycle of random mutagenesis
[3]; 41° C.
  decrease of activity over 10 hours: 63 fold
[3]; 42° C.
  decrease of activity: greater than 2000 fold

B4: LucPpe2[T249M]: LucPpe2 firefly luciferase (Photuris pennsylvanica) with mutation Thr to Met at residue 249, SEQ ID NO:25 (protein)
chain: MEDKNILYGPEPFYPLADGTAGEQMFYALSRYADISGCIALTNAHTKENVLYEEFLKLSCRLAESFKKYGLKQNDTIAVCSENGLQFFLPLIASLYLGIIAAPVSDKYIERELIHSLGIVKPRIIFCSKNTFQKVLNVKSKLKYVETIIILDLNEDLGGYQCLNNFISQNSDINLDVKKFKPNSFNRDDQVALVMFSSGTTGVSKGVMLTHKNIVARFSHCKDPTFGNAINPTTAILTVIPFHHGFGMMTTLGYFTCGFRVALMHTFEEKLFLQSLQDYKVESTLLVPTLMAFFAKSALVEKYDLSHLKEIASGGAPLSKEIGEMVKKRFKLNFVRQGYGLTETTSAVLITPDTDVRPGSTGKIVPFHAVKVVDPTTGKILGPNETGELYFKGDMIMKGYYNNEEATKAIINKDGWLRSGDIAYYDNDGHFYIVDRLKSLIKYKGYQVAPAEIEGILLQHPYIVDAGVTGIPDEAAGELPAAGVVVQTGKYLNEQIVQNFVSSQVSTAKWLRGGVKFLDEIPKGSTGKIDRKVLRQMFEKHKSKL
modifications: Mutant luciferase
[4]; 37° C.
  Thermostability Of Luciferase Activity (Half-Life In Hours): 35.4 min
[4]; 50° C.
  Thermostability Of Luciferase Activity (Half-Life In Hours): 0.6 min
[4]; Room Temperature (about 25° C.)
  Thermostability Of Luciferase Activity (Half-Life In Hours): 6600 min
[5]
  Km: 0.32 µM
[6]
  Km: 18 µM
[7]
  light produced in vivo when expressed in E. coli, relative to LucPpe2: approximately 5 fold
